20 sequences from the Immune Epitope Database (IEDB) can be followed below.

The target of one assay is HLA-A*23:01. In words: IEDB peptide-MHC binding, purified MHC/competitive/radioactivity; filed as Kd, often an IC50 or EC50 that approximates it; ≥ and ≤ were set here for values at or beyond the usual limits of such assays.
A further assay addresses HLA-A*29:02. The assay is described as above.
The target in another assay is HLA-A*24:02. Described as above.
The target in a further assay is HLA-B*57:01. In words: IEDB peptide-MHC binding, purified MHC/direct/fluorescence; filed as Kd, often an IC50 or EC50 that approximates it; ≥ and ≤ were set here for values at or beyond the usual limits of such assays. The conditions noted are these: source organism: Salmonella enterica.
The next assay addresses HLA-B*58:01. The assay is described as above. The conditions noted are these: source organism: Salmonella enterica.
A further assay concerns the target HLA-B*08:01. In words: IEDB peptide-MHC binding, purified MHC/competitive/radioactivity; filed as Kd, often an IC50 or EC50 that approximates it; ≥ and ≤ were set here for values at or beyond the usual limits of such assays.
In a further assay the target is HLA-A*01:01. Described as above.
A further assay deals with HLA-A*30:02. The description is as above.
The next assay addresses HLA-A*26:01. The assay is described as above.
A further assay deals with HLA-A*30:01. Described as above. The settings on record: source organism: Dengue virus 1 Brazil/97-11/1997.
Setting [1] is: source organism: Mammarenavirus machupoense.
The mark [2] stands for this setting: source organism: Vaccinia virus WR.
Where [3] appears, read: source organism: SARS coronavirus Tor2.
[4] abbreviates: source organism: Lymphocytic choriomeningitis virus (strain Armstrong).
The mark [5] stands for this setting: source organism: Mammarenavirus caliense.

A value given as a limit tells only on which side of the number the result lay.

On to RFKTKGRYNL, for which the equilibrium dissociation constant (Kd) – broadly, a measure of binding affinity in units of concentration – with HLA-A*23:01 (setting [1]) was found to be 0.0875 µM; with HLA-A*29:02 (setting [1]), 0.104 µM; with HLA-A*24:02 (setting [1]), 0.579 µM.

With RSRCRLHHL, the equilibrium dissociation constant (Kd) with HLA-B*57:01 was 3.54 µM; with HLA-B*58:01 it was 0.598 µM.

On to SAKRITESI, for which the Kd with HLA-B*08:01 (setting [2]) is 0.119 µM.

On to SCKVKIVPL, for which, in the assay with HLA-B*08:01 (setting [2]), the Kd was 1.43 µM.

SLIPRLVDF: the dissociation constant Kd with HLA-B*08:01 (setting [2]) was 0.0127 µM.

SRHQRLHDE: the Kd with HLA-B*08:01 (setting [2]) came to 0.453 µM.

Consider SYREAACCHL, for which the dissociation constant Kd with HLA-A*23:01 (setting [3]) was 0.643 µM; with HLA-A*29:02 (setting [3]), at least 28.9 µM; with HLA-A*01:01 (setting [3]), at least 25.1 µM; in the assay with HLA-A*30:02 (setting [3]), 7.04 µM; with HLA-A*26:01 (setting [3]), at least 69.7 µM; with HLA-A*24:02 (setting [3]) it was 0.221 µM.

Turning to TARGARRMA, the dissociation constant Kd with HLA-A*30:01 worked out at 6.3 µM.

For TFKTAHAKK, the equilibrium dissociation constant (Kd) with HLA-A*30:01 was determined as 0.0994 µM.

Consider TSSMRGVYY, for which the equilibrium dissociation constant (Kd) was at least 77.8 µM in the assay with HLA-A*23:01 (setting [3]); 0.263 µM in the assay with HLA-A*29:02 (setting [3]); 0.0693 µM with HLA-A*01:01 (setting [3]); 0.124 µM with HLA-A*30:02 (setting [3]); 8.3 µM in the assay with HLA-A*26:01 (setting [3]); at least 77.6 µM with HLA-A*24:02 (setting [3]).

As to TYASALWEI, the dissociation constant (Kd) with HLA-A*23:01 (setting [3]) is 8.14 µM; with HLA-A*29:02 (setting [3]), 14.2 µM; with HLA-A*01:01 (setting [3]), at least 78.1 µM; in the assay with HLA-A*30:02 (setting [3]), at least 81.1 µM; in the assay with HLA-A*26:01 (setting [3]) it was at least 77.9 µM; with HLA-A*24:02 (setting [3]), at least 21.5 µM.

Consider VFSAVGNICY, for which the Kd with HLA-A*23:01 (setting [3]) is 15.4 µM; with HLA-A*29:02 (setting [3]), 0.0283 µM; in the assay with HLA-A*01:01 (setting [3]), 0.0605 µM; in the assay with HLA-A*30:02 (setting [3]) it was 0.0138 µM; with HLA-A*26:01 (setting [3]) it was 1.28 µM; in the assay with HLA-A*24:02 (setting [3]), 7.13 µM.

Regarding VKIPTHRHI, the Kd is at least 77.7 µM with HLA-A*23:01 (setting [4]); 15.4 µM with HLA-A*29:02 (setting [4]); at least 78.1 µM with HLA-A*01:01 (setting [4]); at least 76.9 µM with HLA-A*30:02 (setting [4]); at least 77.9 µM with HLA-A*26:01 (setting [4]); at least 77.5 µM in the assay with HLA-A*24:02 (setting [4]).

Regarding VMPVHTLSI, the equilibrium dissociation constant (Kd) was 0.109 µM with HLA-A*23:01 (setting [3]); 0.141 µM in the assay with HLA-A*29:02 (setting [3]); at least 78.1 µM in the assay with HLA-A*01:01 (setting [3]); 4.57 µM in the assay with HLA-A*30:02 (setting [3]); at least 20.7 µM in the assay with HLA-A*26:01 (setting [3]); 0.0472 µM with HLA-A*24:02 (setting [3]).

With VNREGKIVGL, in the assay with HLA-B*08:01 (source organism: Dengue virus 1 Brazil/97-11/1997), the Kd was at least 35.6 µM.

As to VSIINNAVY, the equilibrium dissociation constant (Kd) in the assay with HLA-A*23:01 (setting [3]) was at least 44.3 µM; with HLA-A*29:02 (setting [3]), 1.07 µM; with HLA-A*01:01 (setting [3]), 0.883 µM; with HLA-A*30:02 (setting [3]) it was 0.00917 µM; with HLA-A*26:01 (setting [3]) it was 15.3 µM; with HLA-A*24:02 (setting [3]), at least 58.7 µM.

Turning to VYKVYYGNAL, the equilibrium dissociation constant (Kd) with HLA-A*23:01 (setting [3]) is 0.746 µM; with HLA-A*29:02 (setting [3]), 7.77 µM; in the assay with HLA-A*01:01 (setting [3]), at least 37.2 µM; with HLA-A*30:02 (setting [3]), 5.98 µM; with HLA-A*26:01 (setting [3]) it was 11.7 µM; with HLA-A*24:02 (setting [3]) it was 0.203 µM.

Turning to YEDQDALFAY, the Kd is at least 70 µM in the assay with HLA-A*23:01 (setting [3]); 0.53 µM with HLA-A*29:02 (setting [3]); at least 92.6 µM in the assay with HLA-A*01:01 (setting [3]); 2.03 µM with HLA-A*30:02 (setting [3]); at least 64.8 µM in the assay with HLA-A*26:01 (setting [3]); at least 70.3 µM with HLA-A*24:02 (setting [3]).

As for YLALYNKYKY, the dissociation constant Kd with HLA-A*23:01 (setting [3]) worked out at 11.6 µM; in the assay with HLA-A*29:02 (setting [3]), 0.0432 µM; in the assay with HLA-A*01:01 (setting [3]), 0.244 µM; in the assay with HLA-A*30:02 (setting [3]), 0.0345 µM; with HLA-A*26:01 (setting [3]), 19.2 µM; with HLA-A*24:02 (setting [3]), 18.6 µM.

Regarding YQPDTGNYI, the equilibrium dissociation constant (Kd) is 5.79 µM in the assay with HLA-A*23:01 (setting [5]), at least 78.9 µM with HLA-A*29:02 (setting [5]) and 5.26 µM in the assay with HLA-A*24:02 (setting [5]).
